Non-standard residues stand in square brackets, D forms with d. Bpa = N[C@@H](Cc1ccc(C(=O)c2ccccc2)cc1)C(=O)O; dBpa = N[C@H](Cc1ccc(C(=O)c2ccccc2)cc1)C(=O)O; dPhe(3,4-F2) = N[C@H](Cc1ccc(F)c(F)c1)C(=O)O; Phe(3-F) = N[C@@H](Cc1cccc(F)c1)C(=O)O; Phe(4-F) = N[C@@H](Cc1ccc(F)cc1)C(=O)O; dPhe(3-F) = N[C@H](Cc1cccc(F)c1)C(=O)O; dPhe(4-F) = N[C@H](Cc1ccc(F)cc1)C(=O)O; dPra = C#CC[C@@H](N)C(=O)O; Dap = NC[C@H](N)C(=O)O

This is an account of results in US20250073302A1 (PURDUE RESEARCH FOUNDATION, published 2025).

B1: CyPPS3 (peptide)
peptide: cyclo(T[dA]F[dF]R[dA])
SMILES: C[C@H]1NC(=O)[C@H](CCCNC(=N)N)NC(=O)[C@@H](Cc2ccccc2)NC(=O)[C@H](Cc2ccccc2)NC(=O)[C@@H](C)NC(=O)[C@H]([C@@H](C)O)NC1=O
B2: CyPPS36 (peptide)
peptide: cyclo(A[dA]F[dF]A[dR])
SMILES: C[C@@H]1NC(=O)[C@@H](CCCNC(=N)N)NC(=O)[C@H](C)NC(=O)[C@@H](Cc2ccccc2)NC(=O)[C@H](Cc2ccccc2)NC(=O)[C@@H](C)NC1=O
B3: CyPPS29 (peptide)
peptide: cyclo(T[dL]L[dF]R[dA])
SMILES: CC(C)C[C@@H]1NC(=O)[C@@H](CC(C)C)NC(=O)[C@H]([C@@H](C)O)NC(=O)[C@@H](C)NC(=O)[C@H](CCCNC(=N)N)NC(=O)[C@@H](Cc2ccccc2)NC1=O
B4: CyPPS30 (peptide)
peptide: cyclo(T[dL]R[dF]R[dA])
SMILES: CC(C)C[C@H]1NC(=O)[C@H]([C@@H](C)O)NC(=O)[C@@H](C)NC(=O)[C@H](CCCNC(=N)N)NC(=O)[C@@H](Cc2ccccc2)NC(=O)[C@H](CCCNC(=N)N)NC1=O
B5: CyPPS19 (peptide)
peptide: cyclo(T[dL]F[dPhe(3-F)]R[dA])
SMILES: CC(C)C[C@H]1NC(=O)[C@H]([C@@H](C)O)NC(=O)[C@@H](C)NC(=O)[C@H](CCCNC(=N)N)NC(=O)[C@@H](Cc2cccc(F)c2)NC(=O)[C@H](Cc2ccccc2)NC1=O
B6: CyPPS15 (peptide)
peptide: cyclo(T[dL][Phe(4-F)][dF]R[dA])
SMILES: CC(C)C[C@H]1NC(=O)[C@H]([C@@H](C)O)NC(=O)[C@@H](C)NC(=O)[C@H](CCCNC(=N)N)NC(=O)[C@@H](Cc2ccccc2)NC(=O)[C@H](Cc2ccc(F)cc2)NC1=O
B7: CyPPS21 (peptide)
peptide: cyclo(T[dL]F[dBpa]R[dA])
SMILES: CC(C)C[C@H]1NC(=O)[C@H]([C@@H](C)O)NC(=O)[C@@H](C)NC(=O)[C@H](CCCNC(=N)N)NC(=O)[C@@H](Cc2ccc(C(=O)c3ccccc3)cc2)NC(=O)[C@H](Cc2ccccc2)NC1=O
B8: CyPPS22 (peptide)
peptide: cyclo(T[dL]F[dF]R[dS])
SMILES: CC(C)C[C@H]1NC(=O)[C@H]([C@@H](C)O)NC(=O)[C@@H](CO)NC(=O)[C@H](CCCNC(=N)N)NC(=O)[C@@H](Cc2ccccc2)NC(=O)[C@H](Cc2ccccc2)NC1=O
B9: CyPPS27 (peptide)
peptide: cyclo(TVF[dF]A[dR])
SMILES: CC(C)[C@@H]1NC(=O)[C@H]([C@@H](C)O)NC(=O)[C@@H](CCCNC(=N)N)NC(=O)[C@H](C)NC(=O)[C@@H](Cc2ccccc2)NC(=O)[C@H](Cc2ccccc2)NC1=O
B10: CyPPS20 (peptide)
peptide: cyclo(T[dL]F[dPhe(3,4-F2)]R[dA])
SMILES: CC(C)C[C@H]1NC(=O)[C@H]([C@@H](C)O)NC(=O)[C@@H](C)NC(=O)[C@H](CCCNC(=N)N)NC(=O)[C@@H](Cc2ccc(F)c(F)c2)NC(=O)[C@H](Cc2ccccc2)NC1=O
B11: CyPPS12 (peptide)
peptide: cyclo(T[dI]F[dF]R[dA])
SMILES: CC[C@@H](C)[C@H]1NC(=O)[C@H]([C@@H](C)O)NC(=O)[C@@H](C)NC(=O)[C@H](CCCNC(=N)N)NC(=O)[C@@H](Cc2ccccc2)NC(=O)[C@H](Cc2ccccc2)NC1=O
B12: CyPPS25 (peptide)
peptide: cyclo([dL]F[dF]K[dA])
SMILES: CC(C)C[C@H]1NC(=O)[C@@H](C)NC(=O)[C@H](CCCCN)NC(=O)[C@@H](Cc2ccccc2)NC(=O)[C@H](Cc2ccccc2)NC1=O
B13: CyPPS2 (peptide)
peptide: cyclo(A[dL]F[dF]R[dA])
SMILES: CC(C)C[C@H]1NC(=O)[C@H](C)NC(=O)[C@@H](C)NC(=O)[C@H](CCCNC(=N)N)NC(=O)[C@@H](Cc2ccccc2)NC(=O)[C@H](Cc2ccccc2)NC1=O
B14: CyPPS5 (peptide)
peptide: cyclo(T[dL]F[dA]R[dA])
SMILES: CC(C)C[C@H]1NC(=O)[C@H]([C@@H](C)O)NC(=O)[C@@H](C)NC(=O)[C@H](CCCNC(=N)N)NC(=O)[C@@H](C)NC(=O)[C@H](Cc2ccccc2)NC1=O
B15: CyPPS18 (peptide)
peptide: cyclo(T[dL]F[dPhe(4-F)]R[dA])
SMILES: CC(C)C[C@H]1NC(=O)[C@H]([C@@H](C)O)NC(=O)[C@@H](C)NC(=O)[C@H](CCCNC(=N)N)NC(=O)[C@@H](Cc2ccc(F)cc2)NC(=O)[C@H](Cc2ccccc2)NC1=O
B16: CyPPS4 (peptide)
peptide: cyclo(T[dL]A[dF]R[dA])
SMILES: CC(C)C[C@H]1NC(=O)[C@H]([C@@H](C)O)NC(=O)[C@@H](C)NC(=O)[C@H](CCCNC(=N)N)NC(=O)[C@@H](Cc2ccccc2)NC(=O)[C@H](C)NC1=O
B17: CyPPS24 (peptide)
peptide: cyclo(T[dL]F[dF][Dap][dR])
modifications: also: AA5 described as D-Dap in one passage, DAP in another
B18: CyPPS33 (peptide)
peptide: cyclo(T[dL]F[dF]R[dPra])
B19: CyPPS10 (peptide)
peptide: cyclo(T[dD]F[dF]R[dA])
SMILES: C[C@H]1NC(=O)[C@H](CCCNC(=N)N)NC(=O)[C@@H](Cc2ccccc2)NC(=O)[C@H](Cc2ccccc2)NC(=O)[C@@H](CC(=O)O)NC(=O)[C@H]([C@@H](C)O)NC1=O
B20: CyPPS35 (peptide)
peptide: cyclo(T[dA]F[dF]A[dR])
SMILES: C[C@@H]1NC(=O)[C@@H](Cc2ccccc2)NC(=O)[C@H](Cc2ccccc2)NC(=O)[C@@H](C)NC(=O)[C@H]([C@@H](C)O)NC(=O)[C@@H](CCCNC(=N)N)NC1=O
B21: CyPPS17 (peptide)
peptide: cyclo(T[dL]F[dY]R[dA])
SMILES: CC(C)C[C@H]1NC(=O)[C@H]([C@@H](C)O)NC(=O)[C@@H](C)NC(=O)[C@H](CCCNC(=N)N)NC(=O)[C@@H](Cc2ccc(O)cc2)NC(=O)[C@H](Cc2ccccc2)NC1=O
B22: CyPPS28 (peptide)
peptide: cyclo(T[dV]F[dF]A[dR])
SMILES: CC(C)[C@H]1NC(=O)[C@H]([C@@H](C)O)NC(=O)[C@@H](CCCNC(=N)N)NC(=O)[C@H](C)NC(=O)[C@@H](Cc2ccccc2)NC(=O)[C@H](Cc2ccccc2)NC1=O
B23: CyPPS31 (peptide)
peptide: cyclo(T[dL][Phe(3-F)][dF]R[dA])
SMILES: CC(C)C[C@H]1NC(=O)[C@H]([C@@H](C)O)NC(=O)[C@@H](C)NC(=O)[C@H](CCCNC(=N)N)NC(=O)[C@@H](Cc2ccccc2)NC(=O)[C@H](Cc2cccc(F)c2)NC1=O
B24: CyPPS32 (peptide)
peptide: cyclo(T[dL][Bpa][dF]R[dA])
SMILES: CC(C)C[C@H]1NC(=O)[C@H]([C@@H](C)O)NC(=O)[C@@H](C)NC(=O)[C@H](CCCNC(=N)N)NC(=O)[C@@H](Cc2ccccc2)NC(=O)[C@H](Cc2ccc(C(=O)c3ccccc3)cc2)NC1=O
B25: CyPPS16 (peptide)
peptide: cyclo(T[dL]Y[dF]R[dA])
SMILES: CC(C)C[C@H]1NC(=O)[C@H]([C@@H](C)O)NC(=O)[C@@H](C)NC(=O)[C@H](CCCNC(=N)N)NC(=O)[C@@H](Cc2ccccc2)NC(=O)[C@H](Cc2ccc(O)cc2)NC1=O
B26: CyPPS11 (peptide)
peptide: cyclo(T[dK]F[dF]R[dA])
SMILES: C[C@H]1NC(=O)[C@H](CCCNC(=N)N)NC(=O)[C@@H](Cc2ccccc2)NC(=O)[C@H](Cc2ccccc2)NC(=O)[C@@H](CCCCN)NC(=O)[C@H]([C@@H](C)O)NC1=O
B27: CyPPS6 (peptide)
peptide: cyclo(T[dL]F[dF]A[dR])
SMILES: CC(C)C[C@H]1NC(=O)[C@H]([C@@H](C)O)NC(=O)[C@@H](CCCNC(=N)N)NC(=O)[C@H](C)NC(=O)[C@@H](Cc2ccccc2)NC(=O)[C@H](Cc2ccccc2)NC1=O
B28: CyPPS34 (peptide)
peptide: cyclo(TAF[dF]A[dR])
SMILES: C[C@@H]1NC(=O)[C@H]([C@@H](C)O)NC(=O)[C@@H](CCCNC(=N)N)NC(=O)[C@H](C)NC(=O)[C@@H](Cc2ccccc2)NC(=O)[C@H](Cc2ccccc2)NC1=O

In this assay the target is 20S core particle (CP) proteasome. As to the kind of experiment: cell-based or functional assay.
Take B1: the “TAS-1 (percent stimulation of 20S CP)” value was 178 % of DMSO.
Take B2: the “TAS-1 (percent stimulation of 20S CP)” value is 185 % of DMSO.
On to B3, for which the “TAS-1 (percent stimulation of 20S CP)” value was 152 % of DMSO.
For the molecule B4, the “TAS-1 (percent stimulation of 20S CP)” value was 212 % of DMSO.
With B5 the figure was 287 % of DMSO.
On to B6, for which the “TAS-1 (percent stimulation of 20S CP)” value is 280 % of DMSO.
With B7, the “TAS-1 (percent stimulation of 20S CP)” value was 278 % of DMSO.
On to B8, for which the “TAS-1 (percent stimulation of 20S CP)” value is 298 % of DMSO.
With B9 the figure was 109 % of DMSO; with B10, 283 % of DMSO.
Consider B11, for which the “TAS-1 (percent stimulation of 20S CP)” value was 124 % of DMSO.
The result for B12 reads 297 % of DMSO.
With B13 the figure was 241 % of DMSO; with B14, 170 % of DMSO; with B15, 246 % of DMSO.
Take B16: the “TAS-1 (percent stimulation of 20S CP)” value was 275 % of DMSO.
As to B17, the “TAS-1 (percent stimulation of 20S CP)” value is 370 % of DMSO.
With B18 the figure was 238 % of DMSO; with B19, 173 % of DMSO.
The result for B20 reads 259 % of DMSO.
For the molecule B21, the “TAS-1 (percent stimulation of 20S CP)” value is 203 % of DMSO.
On to B22, for which the “TAS-1 (percent stimulation of 20S CP)” value was 289 % of DMSO.
With B23 the figure was 199 % of DMSO; with B24, 242 % of DMSO; with B25, 198 % of DMSO.
On to B26, for which the “TAS-1 (percent stimulation of 20S CP)” value is 101 % of DMSO.
As to B27, the “TAS-1 (percent stimulation of 20S CP)” value was 305 % of DMSO.
With B28 the figure was 126 % of DMSO.
